Numbered stars: 1 amine (or outer) side, 2 acyl side, 3 side chain; on linkers, the order of the positions; unused ones are H or OH. Bridge positions count the residues as written; N and C are the ends. Side chains are listed from the residue outwards. Ends that are not written are not given here. * marks the point of attachment. C20 diacid = O=C(O)CCCCCCCCCCCCCCCCCCC(=O)*; γGlu = O=C(O)[C@H](CCC(=O)[*:2])N[*:1]

To fix the notation:
B1: N^ε1-[(4S)-4-carboxy-4-(19-carboxynonadecanoylamino)butanoyl]-[Arg17,Pro21,Pro27,His35]-h-amylin (peptide)
peptide: K([γGlu-C20 diacid])CNTATCATQRLANFLRHSSPNFGAIPSSTNVGSHTY-NH2
modifications: disulfide 2-7; N-terminus assumed
SMILES: CC[C@H](C)[C@H](NC(=O)[C@H](C)NC(=O)CNC(=O)[C@H](Cc1ccccc1)NC(=O)[C@H](CC(N)=O)NC(=O)[C@@H]1CCCN1C(=O)[C@H](CO)NC(=O)[C@H](CO)NC(=O)[C@H](Cc1c[nH]cn1)NC(=O)[C@H](CCCNC(=N)N)NC(=O)[C@H](CC(C)C)NC(=O)[C@H](Cc1ccccc1)NC(=O)[C@H](CC(N)=O)NC(=O)[C@H](C)NC(=O)[C@H](CC(C)C)NC(=O)[C@H](CCCNC(=N)N)NC(=O)[C@H](CCC(N)=O)NC(=O)[C@@H](NC(=O)[C@H](C)NC(=O)[C@@H]1CSSC[C@H](NC(=O)[C@@H](N)CCCCNC(=O)CC[C@H](NC(=O)CCCCCCCCCCCCCCCCCCC(=O)O)C(=O)O)C(=O)N[C@@H](CC(N)=O)C(=O)N[C@@H]([C@@H](C)O)C(=O)N[C@@H](C)C(=O)N[C@@H]([C@@H](C)O)C(=O)N1)[C@@H](C)O)C(=O)N1CCC[C@H]1C(=O)N[C@@H](CO)C(=O)N[C@@H](CO)C(=O)N[C@H](C(=O)N[C@@H](CC(N)=O)C(=O)N[C@H](C(=O)NCC(=O)N[C@@H](CO)C(=O)N[C@@H](Cc1c[nH]cn1)C(=O)N[C@H](C(=O)N[C@@H](Cc1ccc(O)cc1)C(N)=O)[C@@H](C)O)C(C)C)[C@@H](C)O
notes: analogue of human amylin; also called compound 60
B2: N^ε1-[(4S)-4-carboxy-4-(19-carboxynonadecanoylamino)butanoyl]-[Arg17,Pro21,Pro27,Lys35]-h-amylin (peptide)
peptide: K([γGlu-C20 diacid])CNTATCATQRLANFLRHSSPNFGAIPSSTNVGSKTY-NH2
modifications: disulfide 2-7; N-terminus assumed
SMILES: CC[C@H](C)[C@H](NC(=O)[C@H](C)NC(=O)CNC(=O)[C@H](Cc1ccccc1)NC(=O)[C@H](CC(N)=O)NC(=O)[C@@H]1CCCN1C(=O)[C@H](CO)NC(=O)[C@H](CO)NC(=O)[C@H](Cc1c[nH]cn1)NC(=O)[C@H](CCCNC(=N)N)NC(=O)[C@H](CC(C)C)NC(=O)[C@H](Cc1ccccc1)NC(=O)[C@H](CC(N)=O)NC(=O)[C@H](C)NC(=O)[C@H](CC(C)C)NC(=O)[C@H](CCCNC(=N)N)NC(=O)[C@H](CCC(N)=O)NC(=O)[C@@H](NC(=O)[C@H](C)NC(=O)[C@@H]1CSSC[C@H](NC(=O)[C@@H](N)CCCCNC(=O)CC[C@H](NC(=O)CCCCCCCCCCCCCCCCCCC(=O)O)C(=O)O)C(=O)N[C@@H](CC(N)=O)C(=O)N[C@@H]([C@@H](C)O)C(=O)N[C@@H](C)C(=O)N[C@@H]([C@@H](C)O)C(=O)N1)[C@@H](C)O)C(=O)N1CCC[C@H]1C(=O)N[C@@H](CO)C(=O)N[C@@H](CO)C(=O)N[C@H](C(=O)N[C@@H](CC(N)=O)C(=O)N[C@H](C(=O)NCC(=O)N[C@@H](CO)C(=O)N[C@@H](CCCCN)C(=O)N[C@H](C(=O)N[C@@H](Cc1ccc(O)cc1)C(N)=O)[C@@H](C)O)C(C)C)[C@@H](C)O
notes: analogue of human amylin; also called compound 35
B3: N^ε1-[(4S)-4-carboxy-4-(19-carboxynonadecanoylamino)butanoyl]-[Glu14,Arg17,Pro21,Pro27,Arg35]-h-amylin (peptide)
peptide: K([γGlu-C20 diacid])CNTATCATQRLAEFLRHSSPNFGAIPSSTNVGSRTY-NH2
modifications: disulfide 2-7; N-terminus assumed
SMILES: CC[C@H](C)[C@H](NC(=O)[C@H](C)NC(=O)CNC(=O)[C@H](Cc1ccccc1)NC(=O)[C@H](CC(N)=O)NC(=O)[C@@H]1CCCN1C(=O)[C@H](CO)NC(=O)[C@H](CO)NC(=O)[C@H](Cc1c[nH]cn1)NC(=O)[C@H](CCCNC(=N)N)NC(=O)[C@H](CC(C)C)NC(=O)[C@H](Cc1ccccc1)NC(=O)[C@H](CCC(=O)O)NC(=O)[C@H](C)NC(=O)[C@H](CC(C)C)NC(=O)[C@H](CCCNC(=N)N)NC(=O)[C@H](CCC(N)=O)NC(=O)[C@@H](NC(=O)[C@H](C)NC(=O)[C@@H]1CSSC[C@H](NC(=O)[C@@H](N)CCCCNC(=O)CC[C@H](NC(=O)CCCCCCCCCCCCCCCCCCC(=O)O)C(=O)O)C(=O)N[C@@H](CC(N)=O)C(=O)N[C@@H]([C@@H](C)O)C(=O)N[C@@H](C)C(=O)N[C@@H]([C@@H](C)O)C(=O)N1)[C@@H](C)O)C(=O)N1CCC[C@H]1C(=O)N[C@@H](CO)C(=O)N[C@@H](CO)C(=O)N[C@H](C(=O)N[C@@H](CC(N)=O)C(=O)N[C@H](C(=O)NCC(=O)N[C@@H](CO)C(=O)N[C@@H](CCCNC(=N)N)C(=O)N[C@H](C(=O)N[C@@H](Cc1ccc(O)cc1)C(N)=O)[C@@H](C)O)C(C)C)[C@@H](C)O
notes: analogue of human amylin; also called compound 51
B4: N^ε1-[(4S)-4-carboxy-4-(19-carboxynonadecanoylamino)butanoyl]-[His14,Arg17,Pro21,Pro27,Pro31]-h-amylin (peptide)
peptide: K([γGlu-C20 diacid])CNTATCATQRLAHFLRHSSPNFGAIPSSTPVGSNTY-NH2
modifications: disulfide 2-7; N-terminus assumed
SMILES: CC[C@H](C)[C@H](NC(=O)[C@H](C)NC(=O)CNC(=O)[C@H](Cc1ccccc1)NC(=O)[C@H](CC(N)=O)NC(=O)[C@@H]1CCCN1C(=O)[C@H](CO)NC(=O)[C@H](CO)NC(=O)[C@H](Cc1c[nH]cn1)NC(=O)[C@H](CCCNC(=N)N)NC(=O)[C@H](CC(C)C)NC(=O)[C@H](Cc1ccccc1)NC(=O)[C@H](Cc1c[nH]cn1)NC(=O)[C@H](C)NC(=O)[C@H](CC(C)C)NC(=O)[C@H](CCCNC(=N)N)NC(=O)[C@H](CCC(N)=O)NC(=O)[C@@H](NC(=O)[C@H](C)NC(=O)[C@@H]1CSSC[C@H](NC(=O)[C@@H](N)CCCCNC(=O)CC[C@H](NC(=O)CCCCCCCCCCCCCCCCCCC(=O)O)C(=O)O)C(=O)N[C@@H](CC(N)=O)C(=O)N[C@@H]([C@@H](C)O)C(=O)N[C@@H](C)C(=O)N[C@@H]([C@@H](C)O)C(=O)N1)[C@@H](C)O)C(=O)N1CCC[C@H]1C(=O)N[C@@H](CO)C(=O)N[C@@H](CO)C(=O)N[C@H](C(=O)N1CCC[C@H]1C(=O)N[C@H](C(=O)NCC(=O)N[C@@H](CO)C(=O)N[C@@H](CC(N)=O)C(=O)N[C@H](C(=O)N[C@@H](Cc1ccc(O)cc1)C(N)=O)[C@@H](C)O)C(C)C)[C@@H](C)O
notes: analogue of human amylin; also called compound 62
B5: N^ε1-[(4S)-4-carboxy-4-(19-carboxynonadecanoylamino)butanoyl]-[His14,Arg17,Pro21,Pro27]-h-amylin (peptide)
peptide: K([γGlu-C20 diacid])CNTATCATQRLAHFLRHSSPNFGAIPSSTNVGSNTY-NH2
modifications: disulfide 2-7; N-terminus assumed
SMILES: CC[C@H](C)[C@H](NC(=O)[C@H](C)NC(=O)CNC(=O)[C@H](Cc1ccccc1)NC(=O)[C@H](CC(N)=O)NC(=O)[C@@H]1CCCN1C(=O)[C@H](CO)NC(=O)[C@H](CO)NC(=O)[C@H](Cc1c[nH]cn1)NC(=O)[C@H](CCCNC(=N)N)NC(=O)[C@H](CC(C)C)NC(=O)[C@H](Cc1ccccc1)NC(=O)[C@H](Cc1c[nH]cn1)NC(=O)[C@H](C)NC(=O)[C@H](CC(C)C)NC(=O)[C@H](CCCNC(=N)N)NC(=O)[C@H](CCC(N)=O)NC(=O)[C@@H](NC(=O)[C@H](C)NC(=O)[C@@H]1CSSC[C@H](NC(=O)[C@@H](N)CCCCNC(=O)CC[C@H](NC(=O)CCCCCCCCCCCCCCCCCCC(=O)O)C(=O)O)C(=O)N[C@@H](CC(N)=O)C(=O)N[C@@H]([C@@H](C)O)C(=O)N[C@@H](C)C(=O)N[C@@H]([C@@H](C)O)C(=O)N1)[C@@H](C)O)C(=O)N1CCC[C@H]1C(=O)N[C@@H](CO)C(=O)N[C@@H](CO)C(=O)N[C@H](C(=O)N[C@@H](CC(N)=O)C(=O)N[C@H](C(=O)NCC(=O)N[C@@H](CO)C(=O)N[C@@H](CC(N)=O)C(=O)N[C@H](C(=O)N[C@@H](Cc1ccc(O)cc1)C(N)=O)[C@@H](C)O)C(C)C)[C@@H](C)O
notes: analogue of human amylin; also called compound 70
B6: N^ε1-[(4S)-4-carboxy-4-(19-carboxynonadecanoylamino)butanoyl]-[His14,Arg17,Pro21,Pro27,His35]-h-amylin (peptide)
peptide: K([γGlu-C20 diacid])CNTATCATQRLAHFLRHSSPNFGAIPSSTNVGSHTY-NH2
modifications: disulfide 2-7; N-terminus assumed
SMILES: CC[C@H](C)[C@H](NC(=O)[C@H](C)NC(=O)CNC(=O)[C@H](Cc1ccccc1)NC(=O)[C@H](CC(N)=O)NC(=O)[C@@H]1CCCN1C(=O)[C@H](CO)NC(=O)[C@H](CO)NC(=O)[C@H](Cc1c[nH]cn1)NC(=O)[C@H](CCCNC(=N)N)NC(=O)[C@H](CC(C)C)NC(=O)[C@H](Cc1ccccc1)NC(=O)[C@H](Cc1c[nH]cn1)NC(=O)[C@H](C)NC(=O)[C@H](CC(C)C)NC(=O)[C@H](CCCNC(=N)N)NC(=O)[C@H](CCC(N)=O)NC(=O)[C@@H](NC(=O)[C@H](C)NC(=O)[C@@H]1CSSC[C@H](NC(=O)[C@@H](N)CCCCNC(=O)CC[C@H](NC(=O)CCCCCCCCCCCCCCCCCCC(=O)O)C(=O)O)C(=O)N[C@@H](CC(N)=O)C(=O)N[C@@H]([C@@H](C)O)C(=O)N[C@@H](C)C(=O)N[C@@H]([C@@H](C)O)C(=O)N1)[C@@H](C)O)C(=O)N1CCC[C@H]1C(=O)N[C@@H](CO)C(=O)N[C@@H](CO)C(=O)N[C@H](C(=O)N[C@@H](CC(N)=O)C(=O)N[C@H](C(=O)NCC(=O)N[C@@H](CO)C(=O)N[C@@H](Cc1c[nH]cn1)C(=O)N[C@H](C(=O)N[C@@H](Cc1ccc(O)cc1)C(N)=O)[C@@H](C)O)C(C)C)[C@@H](C)O
notes: analogue of human amylin; also called compound 66

This experiment concerns the target T1, human calcitonin receptor (human, UniProt P30988 25-474).
T1 sequence (looked up): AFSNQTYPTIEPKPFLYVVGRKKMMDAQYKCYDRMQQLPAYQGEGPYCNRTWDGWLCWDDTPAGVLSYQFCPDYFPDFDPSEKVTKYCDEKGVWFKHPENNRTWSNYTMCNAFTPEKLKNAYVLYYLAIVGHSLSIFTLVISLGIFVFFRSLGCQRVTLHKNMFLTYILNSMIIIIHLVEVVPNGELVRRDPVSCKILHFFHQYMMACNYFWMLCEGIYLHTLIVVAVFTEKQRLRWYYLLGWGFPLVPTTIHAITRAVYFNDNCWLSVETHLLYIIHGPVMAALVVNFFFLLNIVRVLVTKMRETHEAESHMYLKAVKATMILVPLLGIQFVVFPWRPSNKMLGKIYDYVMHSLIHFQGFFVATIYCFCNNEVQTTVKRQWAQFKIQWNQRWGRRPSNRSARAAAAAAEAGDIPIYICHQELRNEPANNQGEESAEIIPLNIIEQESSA
The experiment in a line: cell-based or functional assay.
As for B1, the “hCTR funct. EC50” value was found to be 5.36 nM. On to B2, for which the “hCTR funct. EC50” value is 5.46 nM. Under B3 stands 5.22 nM; under B4, 0.539 nM. As for B5, the “hCTR funct. EC50” value worked out at 0.715 nM.

In the case of B6, the “hCTR funct. EC50” value was 0.542 nM.

These data come from patent US20140087995A1 (published 2014).
